Reference: doi:10.1101/2024.03.03.583237 (bioRxiv, 2024)

Biological target: SARS-CoV-2 spike trimer (soluble S-trimer) (SARS-CoV-2 Wuhan-Hu-1 (NC_045512), UniProt P0DTC2)
Experiment: live-cell binding assay

B1: S2L20-CVR (scFv, V domains shown)
VH: EVQLVESGGGVVQPGGSLRLSCAASGFTFNSYGMHWVRQAPGKGLEWVAFIRYDGGNKYYADSVKGRFTISRDNSKNTLYLQMKSLRAEDTAVYYCANLKDSRYSGSYYDYWGQGTLVTVS
VL: not shown
binding result: binds
